Measured values as given in patent US10597433B2, “Peptides and combination of peptides for use in immunotherapy against small cell lung cancer and other cancers” (Immatics Biotechnologies GmbH, priority 2015, dated 2020).

Columns and labels:
HLA-A*02:01 = HLA-A*02:01 (Homo sapiens, UniProt P04439, D140Y/D185E/D98H/E176V/E277Q/G131W/G231S/I119V/I121R/I166T/I218V/L300P/L318F/N151K/N90K/P208A/P217A/Q86G/Q94H/R138H/R169H/T345S); experiment: MHC binding assay: UV-ligand exchange with ELISA detection of β2m of stabilized MHC complexes; conditions: binding to HLA-A*02:01
Source text: Candidate peptides for T cell based therapies according to the present invention were further tested for their MHC binding capacity (affinity). The individual peptide-MHC complexes were produced by UV-ligand exchange, where a UV-sensitive peptide is cleaved upon UV-irradiation, and exchanged with the peptide of interest as analyzed. Only peptide candidates that can effectively bind and stabilize the peptide-receptive MHC molecules prevent dissociation of the MHC complexes. To determine the yield of the exchange reaction, an ELISA was performed based on the detection of the light chain (β2m) of stabilized MHC complexes. The assay was performed as generally described in Rodenko et al. (Rodenko et al., 2006).
96 well MAXISorp plates (NUNC) were coated over night with 2 μg/ml streptavidin in PBS at room temperature, washed 4× and blocked for 1 h at 37° C. in 2% BSA containing blocking buffer. Refolded HLA-A*02:01/MLA-001 monomers served as standards, covering the range of 15-500 ng/ml. Peptide-MHC monomers of the UV-exchange reaction were diluted 100 fold in blocking buffer. Samples were incubated for 1 h at 37° C., washed four times, incubated with 2 μg/ml HRP conjugated anti-β2m for 1 h at 37° C., washed again and detected with TMB solution that is stopped with […]. Absorption was measured at 450 nm. Candidate peptides that show a high exchange yield (preferably higher than 50%, most preferred higher than 75%) are generally preferred for a generation and production of antibodies or fragments thereof, and/or T cell receptors or fragments thereof, as they show sufficient avidity to the MHC molecules and prevent dissociation of the MHC complexes.

CD8+ T cells = experiment: In vitro T-cell priming assay with aAPCs loaded with peptide/MHC complexes and anti-CD28 antibody, pMHC multimer readout; format: cell-based, human; conditions: for Wells positive [%]: HLA-A*02 restricted peptides, CD8+ T cells of healthy donors, Table 10B; for wells (in vitro immunogenicity, positive wells): CD8+ T cells of healthy HLA-A*02 donors, Table 10A
Source text: In order to obtain information regarding the immunogenicity of the TUMAPs of the present invention, the inventors performed investigations using an in vitro T-cell priming assay based on repeated stimulations of CD8+ T cells with artificial antigen presenting cells (aAPCs) loaded with peptide/MHC complexes and anti-CD28 antibody.
In order to perform in vitro stimulations by artificial antigen presenting cells loaded with peptide-MHC complex (pMHC) and anti-CD28 antibody, the inventors first isolated CD8+ T cells from fresh HLA-A*02 leukapheresis products via positive selection using CD8 microbeads (Miltenyi Biotec, Bergisch-Gladbach, Germany) of healthy donors obtained from the University clinics Mannheim, Germany, after informed consent.
PBMCs and isolated CD8+ lymphocytes were incubated in T-cell medium (TCM) until use consisting of RPMI-Glutamax (Invitrogen, Karlsruhe, Germany) supplemented with 10% heat inactivated human AB serum (PAN-Biotech, Aidenbach, Germany), 100 U/ml Penicillin/100 μg/ml Streptomycin (Cambrex, Cologne, Germany), 1 mM sodium pyruvate (CC Pro, Oberdorla, Germany), 20 μg/ml Gentamycin (Cambrex). 2.5 ng/ml IL-7 (PromoCell, Heidelberg, Germany) and 10 U/ml IL-2 (Novartis Pharma, Nürnberg, Germany) were also added to the TCM at this step.
Generation of pMHC/anti-CD28 coated beads, T-cell stimulations and readout was performed in a highly defined in vitro system using four different pMHC molecules per stimulation condition and 8 different pMHC molecules per readout condition.
The purified co-stimulatory mouse IgG2a anti human CD28 Ab9.3 (Jung et al., 1987) was chemically biotinylated using Sulfo-N-hydroxysuccinimidobiotin as recommended by the manufacturer (Perbio, Bonn, Germany). Beads used were 5.6 μm diameter streptavidin coated polystyrene particles (Bangs Laboratories, Ill., USA).
800.000 beads/200 μl were coated in 96-well plates in the presence of 4×12.5 ng different biotin-pMHC, washed and 600 ng biotin anti-CD28 were added subsequently in a volume of 200 μl. Stimulations were initiated in 96-well plates by co-incubating […] CD8+ T cells with 2×10^5 washed coated beads in 200 μl TCM supplemented with 5 ng/ml IL-12 (PromoCell) for 3 days at 37° C. Half of the medium was then exchanged by fresh TCM supplemented with 80 Uml IL-2 and incubating was continued for 4 days at 37° C. This stimulation cycle was performed for a total of three times. For the pMHC multimer readout using 8 different pMHC molecules per condition, a two-dimensional combinatorial coding approach was used as previously described (Andersen et al., 2012) with minor modifications encompassing coupling to 5 different fluorochromes. Finally, multimeric analyses were performed by staining the cells with Live/dead near IR dye (Invitrogen, Karlsruhe, Germany), CD8-FITC antibody clone SK1 (BD, Heidelberg, Germany) and fluorescent pMHC multimers. For analysis, a BD LSRII SORP cytometer equipped with appropriate lasers and filters was used. Peptide specific cells were calculated as percentage of total CD8+ cells. Evaluation of multimeric analysis was done using the FlowJo software (Tree Star, Oreg., USA). In vitro priming of specific multimer+ CD8+ lymphocytes was detected by comparing to negative control stimulations.

Row | Substance | Peptide exchange (MHC class I binding score, peptide exchange yield) (HLA-A*02:01) | Wells positive [%] (CD8+ T cells) | wells (in vitro immunogenicity, positive wells) (CD8+ T cells)
1 | 2 (VMFNFPDQATV; listed as Homo sapiens) [compound 2] | +++ (≥50 = +++) | + (<20% = +) | –
2 | 4 (GLLDPGMLVNI; listed as Homo sapiens) [compound 4] | +++ (≥50 = +++) | ++ (20%-49% = ++) | –
3 | 6 (SIMDYVVFV; listed as Homo sapiens) [compound 6] | ++++ (≥75% = ++++) | + (<20% = +) | –
4 | 11 (KLFAIPILL; listed as Homo sapiens) [compound 11] | +++ (≥50 = +++) | ++++ (≥70 = ++++) | –
5 | 39 (GLDPTQFRV; listed as Homo sapiens) [compound 39] | +++ (≥50 = +++) | ++++ (≥70 = ++++) | –
6 | 80 (ILMDPSPEYA; listed as Homo sapiens) [compound 80] | +++ (≥50 = +++) | +++ (50%-69% = +++) | –
7 | 82 (ALSSVIKEL; listed as Homo sapiens) [compound 82] | +++ (≥50 = +++) | + (<20% = +) | –
8 | 110 (GLTETGLYRI; listed as Homo sapiens) [compound 110] | +++ (≥50 = +++) | +++ (50%-69% = +++) | –
9 | 120 (SLAADIPRL; listed as Homo sapiens) [compound 120] | +++ (≥50 = +++) | – | –
10 | 121 (YMLEHVITL; listed as Homo sapiens) [compound 121] | +++ (≥50 = +++) | – | –
11 | 122 (SMMPDELLTSL; listed as Homo sapiens) [compound 122] | +++ (≥50 = +++) | – | –
12 | 123 (KLDKNPNQV; listed as Homo sapiens) [compound 123] | +++ (≥50 = +++) | – | –
13 | 124 (SLITDLQTI; listed as Homo sapiens) [compound 124] | +++ (≥50 = +++) | – | –
14 | 125 (LLSEPSLLRTV; listed as Homo sapiens) [compound 125] | +++ (≥50 = +++) | – | –
15 | 126 (AAASLIRLV; listed as Homo sapiens) [compound 126] | + (≥10% = +) | – | –
16 | 128 (SLAPAGVIRV; listed as Homo sapiens) [compound 128] | – | – | + (<20% = +)
17 | 129 (RVADYIVKV; listed as Homo sapiens) [compound 129] | – | – | + (<20% = +)
18 | 130 (SLYDNQITTV; listed as Homo sapiens) [compound 130] | – | – | ++ (20%-49% = ++)
19 | 132 (NLLAEIHGV; listed as Homo sapiens) [compound 132] | – | – | + (<20% = +)
